Test results taken from patent US20040086945A1, “Hairless protein-interacting partner complexes and methods thereto” (The Procter & Gamble Company, priority 2002, published 2004).

T1: mouse HRt (hairless protein aa 490-1182) (Mus musculus, UniProt Q61645)
T1 construct: HR cDNA corresponding to the C-terminal half of HR protein (aa residues 490 to 1182, hereinafter HRt); expressed in transfected cells; host or cells: Saccharomyces cerevisiae PJ69-2A transformed with BD-HRt plasmid, mated with Y187 carrying the human brain cDNA library in pACT2
T1 sequence (Q61645 490-1182): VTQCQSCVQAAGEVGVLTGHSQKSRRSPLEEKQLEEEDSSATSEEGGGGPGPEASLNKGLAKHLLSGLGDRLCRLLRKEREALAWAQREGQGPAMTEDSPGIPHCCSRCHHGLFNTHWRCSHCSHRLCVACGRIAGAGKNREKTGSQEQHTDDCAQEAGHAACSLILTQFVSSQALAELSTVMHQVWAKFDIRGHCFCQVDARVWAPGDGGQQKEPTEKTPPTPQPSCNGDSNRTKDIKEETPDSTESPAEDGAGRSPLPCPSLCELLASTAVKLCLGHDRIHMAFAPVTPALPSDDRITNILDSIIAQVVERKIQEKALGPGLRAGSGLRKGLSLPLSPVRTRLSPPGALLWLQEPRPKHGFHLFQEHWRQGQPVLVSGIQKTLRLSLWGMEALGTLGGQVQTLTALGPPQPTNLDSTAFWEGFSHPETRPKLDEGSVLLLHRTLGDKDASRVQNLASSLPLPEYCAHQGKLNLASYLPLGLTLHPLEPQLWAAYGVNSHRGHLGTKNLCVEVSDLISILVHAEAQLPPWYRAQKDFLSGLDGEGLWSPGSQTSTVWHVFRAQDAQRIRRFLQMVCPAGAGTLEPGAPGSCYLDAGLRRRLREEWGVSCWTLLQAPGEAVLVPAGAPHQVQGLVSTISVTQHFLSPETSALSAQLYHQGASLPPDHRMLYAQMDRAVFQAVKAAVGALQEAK

B1: Human transcription factor Y, gamma: human HRt interacting partner, GenBank BC005003, SEQ ID NO:53/54 (protein, UniProt Q13952 1-458, looked up)
Nuclear transcription factor …: MSTEGGFGGTSSSDAQQSLQSFWPRVMEEIRNLTVKDFRVQELPLARIKKIMKLDEDVKMISAEAPVLFAKAAQIFITELTLRAWIHTEDNKRRTLQRNDIAMAITKFDQFDFLIDIVPRDELKPPKRQEEVRQSVTPAEPVQYYFTLAQQPTAVQVQGQQQGQQTTSSTTTIQPGQIIIAQPQQGQTTPVTMQVGEGQQVQIVQAQPQGQAQQAQSGTGQTMQVMQQIITNTGEIQQIPVQLNAGQLQYIRLAQPVSGTQVVQGQIQTLATNAQQGQRNASQGKPRRCLKETLQITQTEVQQGQQQFSQFTDGQRNSVQQARVSELTGEAEPREVKATGNSTPCTSSLPTTHPPSHRAGASCVCCSQPQQSSTSPPPSDALQWVVVEVSGTPNQLETHRELHAPLPGMTSLSPLHPSQQLYQIQQVTMPAGQDLAQPMFIQSANQPSDGQAPQVTGD
B2: Human MDC15: human HRt interacting partner, GenBank U46005, SEQ ID NO:77 (protein, listed as Homo sapiens)
chain: LGLQWHADGRLTKKLNGLADLEACIKTLHGQGFSQPSLTTLTAFSVEGCLQEHCVILIQSW
B3: Human […]-mannosidase: human HRt interacting partner, GenBank U60337, SEQ ID NO:80/81 (protein, UniProt O00462 18-879, looked up)
Beta-mannosidase: AAELSYSLRGNWSICNGNGSLELPGAVPGCVHSALFQQGLIQDSYYRFNDLNYRWVSLDNWTYSKEFKIPFEISKWQKVNLILEGVDTVSKILFNEVTIGETDNMFNRYSFDITNVVRDVNSIELRFQSAVLYAAQQSKAHTRYQVPPDCPPLVQKGECHVNFVRKEQCSFSWDWGPSFPTQGIWKDVRIEAYNICHLNYFTFSPIYDKSAQEWNLEIESTFDVVSSKPVGGQVIVAIPKLQTQQTYSIELQPGKRIVELFVNISKNITVETWWPHGHGNQTGYNMTVLFELDGGLNIEKSAKVYFRTVELIEEPIKGSPGLSFYFKINGFPIFLKGSNWIPADSFQDRVTSELLRLLLQSVVDANMNTLRVWGGGIYEQDEFYELCDELGIMVWQDFMFACALYPTDQGFLDSVTAEVAYQIKRLKSHPSIIIWSGNNENEEALMMNWYHISFTDRPIYIKDYVTLYVKNIRELVLAGDKSRPFITSSPTNGAETVAEAWVSQNPNSNYFGDVHFYDYISDCWNWKVFPKARFASEYGYQSWPSFSTLEKVSSTEDWSFNSKFSLHRQHHEGGNKQMLYQAGLHFKLPQSTDPLRTFKDTIYLTQVMQAQCVKTETEFYRRSRSEIVDQQGHTMGALYWQLNDIWQAPSWASLEYGGKWKMLHYFAQNFFAPLLPVGFENENTFYIYGVSDLHSDYSMTLSVRVHTWSSLEPVCSRVTERFVMKGGEAVCLYEEPVSELLRRCGNCTRESCVVSFYLSADHELLSPTNYHFLSSPKEAVGLCKAQITAIISQQGDIFVFDLETSAVAPFVWLDVGSIPGRFSDNGFLMTEKTRTILFYPWEPTSKNELEQSFHVTSLTDIY
B4: Human cDNA FLJ20109 fis clone COL05067: human HRt interacting partner, GenBank BC009472, SEQ ID NO:72/73 (protein, listed as Homo sapiens)
chain: VASPPVPCSAAFRSLHISVARDLKMRLHLLLLLALCGAGTTAAELSYSLRGNWSICNGNGSLELPGAVPGCVHSALFQ
B5: Human metallothionein from cadmium-treated cells: human HRt interacting partner, GenBank V00594, SEQ ID NO:3/4 (protein, listed as Homo sapiens)
chain: VPANPRATCPDSSRLFSSPWIPTAPAPPVTPAPAPAPANAKSANAPPARKAAAPAALWAVPSVPRAASAKGRRTSAAAAPDAGTAPLPDVKNATSTNLDFLCTTLTVTVCYIPFSMK
B6: Human neuronal membrane glycoprotein M6b1: human HRt interacting partner, GenBank AF016004, SEQ ID NO:56 (protein, UniProt Q13491 1-265, looked up)
Neuronal membrane …: MKPAMETAAEENTEQSQERKGCFECCIKCLGGVPYASLVATILCFSGVALFCGCGHVALAGTVAILEQHFSTNASDHALLSEVIQLMQYVIYGIASFFFLYGIILLAEGFYTTSAVKELHGEFKTTACGRCISGMFVFLTYVLGVAWLGVFGFSAVPVFMFYNIWSTCEVIKSPQTNGTTGVEQICVDIRQYGIIPWNAFPGKICGSALENICNTNEFYMSYHLFIVACAGAGATVIALLIYMMATTYNYAVLKFKSREDCCTKF
B7: Human PACE4 (SPC4): human HRt interacting partner, GenBank AB001899, SEQ ID NO:69 (protein, UniProt P29122 150-969, looked up)
Proprotein convertase …: QVRSDPQALYFNDPIWSNMWYLHCGDKNSRCRSEMNVQAAWKRGYTGKNVVVTILDDGIERNHPDLAPNYDSYASYDVNGNDYDPSPRYDASNENKHGTRCAGEVAASANNSYCIVGIAYNAKIGGIRMLDGDVTDVVEAKSLGIRPNYIDIYSASWGPDDDGKTVDGPGRLAKQAFEYGIKKGRQGLGSIFVWASGNGGREGDYCSCDGYTNSIYTISVSSATENGYKPWYLEECASTLATTYSSGAFYERKIVTTDLRQRCTDGHTGTSVSAPMVAGIIALALEANSQLTWRDVQHLLVKTSRPAHLKASDWKVNGAGHKVSHFYGFGLVDAEALVVEAKKWTAVPSQHMCVAASDKRPRSIPLVQVLRTTALTSACAEHSDQRVVYLEHVVVRTSISHPRRGDLQIYLVSPSGTKSQLLAKRLLDLSNEGFTNWEFMTVHCWGEKAEGQWTLEIQDLPSQVRNPEKQGKLKEWSLILYGTAEHPYHTFSAHQSRSRMLELSAPELEPPKAALSPSQVEVPEDEEDYTAQSTPGSANILQTSVCHPECGDKGCDGPNADQCLNCVHFSLGSVKTSRKCVSVCPLGYFGDTAARRCRRCHKGCETCSSRAATQCLSCRRGFYHHQEMNTCVTLCPAGFYADESQKNCLKCHPSCKKCVDEPEKCTVCKEGFSLARGSCIPDCEPGTYFDSELIRCGECHHTCGTCVGPGREECIHCAKNFHFHDWKCVPACGEGFYPEEMPGLPHKVCRRCDENCLSCAGSSRNCSRCKTGFTQLGTSCITNHTCSNADETFCEMVKSNRLCERKLFIQFCCRTCLLAG
B8: Human splicing factor (CC1.4): human HRt interacting partner, GenBank L10911, SEQ ID NO:59/60 (protein, listed as Homo sapiens)
chain: EFAAASTTAPVIIFVSKMFAVDAKALPQNKPRPLTQEEIAQRRERARQRHAEKLAAAQGQAPLEPTQDGSAIETCPKGEEPRGDEQQVESMTPKPVLQEENNQESFIAFARVFSGVARRGKKIFVLGPKYSPLEFLRRVPLGFSAPPDGLPQVPHMAYCALENLYLLMGRELEYLEEVPPGNVLGIGGLQDFVLKSATLCSLPSCPPFIPLNFEATPIVRVAVEPKHPSEMPQLVKG

Molecular target: T1, mouse HRt (hairless protein aa 490-1182)
Assay: Yeast two-hybrid screen of BD-HRt against human brain cDNA library in AD vector, lacZ coloration on QDO-Xgal plates
Assay type: cell-based
Settings: BD-HRt(mouse) x human brain cDNA library in AD-vector
Description: The present example provides for Hairless Protein (HR) interacting partners (HR-IP) using the yeast two-hybrid technology. […] Yeast cells expressing BD-HRt are mated with yeast cells pretransformed with human brain cDNA library in the activation domain (AD) vector.
Cloning of HRt into GAL4 binding domain (BD) yeast two-hybrid (Y2H) vector: The HRt insert from pET32a-HRt is excised as an Eco RI-Xho I fragment (there is a unique Xho I site just adjacent to HRt insert) and inserted at the Eco RI-Sal I sites of Y2H-BD vector pGBKT7 (Catalog No. K1612-B; a component of Matchmaker two-hybrid System 3 (Catalog No. K1612-1) BD Biosciences Clontech, Palo Alto, Calif.) to obtain pGBKT7-HRt in which HRt is fused in-frame to GAL 4 DNA BD (this plasmid is also designated BD-HRt).
Pretransformed human brain […] cDNA Library Screen for HRt interaction partners: Pretransformed human brain […] high-complexity GAL4 cDNA library that has already been amplified and introduced into yeast strain Y187 (MATα) is used to screen for HRt interacting proteins. […] The library host strain Y187 provides a third reporter gene (lacZ) for optional quantification of signal strength. The protocol as described in Clontech user manual (PT3183-1) is used. Briefly, the library is mixed with PJ69-2A strain that has been transformed with the BD-HRt plasmid in YPD medium containing adenine hemisulfate (0.004%) and kanamycin (0.005%) and incubated for 20-24 h at 30° C. The next day, the mating mixture is plated on Leu, Trp, His TDO that selects for two-hybrid interactions, and then the positive clones are screened for growth on Leu, Trp, His, Ade QDO, which is a more stringent condition for interaction. Colonies that grew well on QDO are also screened for lacZ expression by streaking on QDO-Xgal plates. Based on a visual assessment of colonies for the intensity of blue color, the clones are classified into high (H), medium (M), low (L) or very low (VL) categories.
The positive clones are expected to contain an AD-IP (interacting partner) that interacts with BD-HRt. To characterize IP, the sequence of IP is determined and matched to the human genome database. For this purpose, total DNA is isolated from the positive clones and PCR amplified with […] AD LD (long distance)-insert screening amplimers (Catalog No.9103-1; BD Biosciences Clontech, PaloAlto, Calif.). Reaction is conducted in 50 μl volume for 35 cycles using the conditions recommended with the Advantage2 PCR kit (Catalog No. K1910-1; BD Biosciences Clontech, PaloAlto, Calif.).

Row | Molecule | XGAL (rate and intensity of coloration of colonies on Xgal)
1 | B1 | L (L = Low blue in 5-7 days)
2 | B2 | L (L = Low blue in 5-7 days)
3 | B3 | L (L = Low blue in 5-7 days)
4 | B4 | L (L = Low blue in 5-7 days)
5 | B5 | H (H = Intense blue within 2-3 days)
6 | B6 | L (L = Low blue in 5-7 days)
7 | B7 | L (L = Low blue in 5-7 days)
8 | B8 | L/VL
